Experimental data as given in patent publication US20150344570A1 (published 2015).

Target: T1, FcγRIa (human, UniProt P12314 16-292)
T1 construct: extracellular domain; soluble His-tagged extracellular domain expressed in FreeStyle293 cells, used as analyte in Biacore; also called FcgRI; CD64
Assay: SPR (Biacore), captured antibody, FcγRIa analyte; relative to GpH7-B3/GpL16-k0

T1 sequence (P12314 16-292): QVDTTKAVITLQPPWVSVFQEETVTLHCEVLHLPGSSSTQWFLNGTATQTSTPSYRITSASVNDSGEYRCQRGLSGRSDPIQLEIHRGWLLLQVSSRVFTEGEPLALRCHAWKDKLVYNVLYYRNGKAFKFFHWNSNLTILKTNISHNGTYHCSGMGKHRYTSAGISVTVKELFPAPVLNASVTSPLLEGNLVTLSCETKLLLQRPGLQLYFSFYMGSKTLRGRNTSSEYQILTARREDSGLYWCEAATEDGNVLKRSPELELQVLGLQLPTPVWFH

Binder | Ho/Con_1a
GpH7-B3 variant T335_10E/GpL16-k0 (antibody, human IgG1, kappa, homodimerized IgG1, mutation in both H chains; also called Ho Ab) heavy: not shown light: DIVMTQSPLSLPVTPGEPASISCQASESLVHSNRNTYLHWYLQKPGQSPQLLIYKVSNRFSGVPDRFSGSGSGTDFTLKISRVEAEDVGVYYCSQNTHVPPTFGQGTKVEIERTVAAPSVFIFPPSDEQLKSGTASVVCLLNNFYPREAKVQWKVDNALQSGNSQESVTEQDSKDSTYSLSSTLTLSKADYEKHKVYACEVTHQGLSSPVTKSFNRGEC | 108 relative, control = 100
GpH7-B3 variant T335_12R/GpL16-k0 (antibody, human IgG1, kappa, homodimerized IgG1, mutation in both H chains; also called Ho Ab) heavy: not shown light: DIVMTQSPLSLPVTPGEPASISCQASESLVHSNRNTYLHWYLQKPGQSPQLLIYKVSNRFSGVPDRFSGSGSGTDFTLKISRVEAEDVGVYYCSQNTHVPPTFGQGTKVEIERTVAAPSVFIFPPSDEQLKSGTASVVCLLNNFYPREAKVQWKVDNALQSGNSQESVTEQDSKDSTYSLSSTLTLSKADYEKHKVYACEVTHQGLSSPVTKSFNRGEC | 106 relative, control = 100
GpH7-B3 variant Y296_12R/GpL16-k0 (antibody, human IgG1, kappa, homodimerized IgG1, mutation in both H chains; also called Ho Ab) heavy: not shown light: DIVMTQSPLSLPVTPGEPASISCQASESLVHSNRNTYLHWYLQKPGQSPQLLIYKVSNRFSGVPDRFSGSGSGTDFTLKISRVEAEDVGVYYCSQNTHVPPTFGQGTKVEIERTVAAPSVFIFPPSDEQLKSGTASVVCLLNNFYPREAKVQWKVDNALQSGNSQESVTEQDSKDSTYSLSSTLTLSKADYEKHKVYACEVTHQGLSSPVTKSFNRGEC | 103 relative, control = 100
GpH7-B3 variant Y300_19Q/GpL16-k0 (antibody, human IgG1, kappa, homodimerized IgG1, mutation in both H chains; also called Ho Ab) heavy: not shown light: DIVMTQSPLSLPVTPGEPASISCQASESLVHSNRNTYLHWYLQKPGQSPQLLIYKVSNRFSGVPDRFSGSGSGTDFTLKISRVEAEDVGVYYCSQNTHVPPTFGQGTKVEIERTVAAPSVFIFPPSDEQLKSGTASVVCLLNNFYPREAKVQWKVDNALQSGNSQESVTEQDSKDSTYSLSSTLTLSKADYEKHKVYACEVTHQGLSSPVTKSFNRGEC | 110 relative, control = 100
GpH7-B3 variant T335_18N/GpL16-k0 (antibody, human IgG1, kappa, homodimerized IgG1, mutation in both H chains; also called Ho Ab) heavy: not shown light: DIVMTQSPLSLPVTPGEPASISCQASESLVHSNRNTYLHWYLQKPGQSPQLLIYKVSNRFSGVPDRFSGSGSGTDFTLKISRVEAEDVGVYYCSQNTHVPPTFGQGTKVEIERTVAAPSVFIFPPSDEQLKSGTASVVCLLNNFYPREAKVQWKVDNALQSGNSQESVTEQDSKDSTYSLSSTLTLSKADYEKHKVYACEVTHQGLSSPVTKSFNRGEC | 102 relative, control = 100
GpH7-B3 variant T335_11K/GpL16-k0 (antibody, human IgG1, kappa, homodimerized IgG1, mutation in both H chains; also called Ho Ab) heavy: not shown light: DIVMTQSPLSLPVTPGEPASISCQASESLVHSNRNTYLHWYLQKPGQSPQLLIYKVSNRFSGVPDRFSGSGSGTDFTLKISRVEAEDVGVYYCSQNTHVPPTFGQGTKVEIERTVAAPSVFIFPPSDEQLKSGTASVVCLLNNFYPREAKVQWKVDNALQSGNSQESVTEQDSKDSTYSLSSTLTLSKADYEKHKVYACEVTHQGLSSPVTKSFNRGEC | 103 relative, control = 100
GpH7-B3 variant Y300_08L/GpL16-k0 (antibody, human IgG1, kappa, homodimerized IgG1, mutation in both H chains; also called Ho Ab) heavy: not shown light: DIVMTQSPLSLPVTPGEPASISCQASESLVHSNRNTYLHWYLQKPGQSPQLLIYKVSNRFSGVPDRFSGSGSGTDFTLKISRVEAEDVGVYYCSQNTHVPPTFGQGTKVEIERTVAAPSVFIFPPSDEQLKSGTASVVCLLNNFYPREAKVQWKVDNALQSGNSQESVTEQDSKDSTYSLSSTLTLSKADYEKHKVYACEVTHQGLSSPVTKSFNRGEC | 109 relative, control = 100
GpH7-B3 variant Y300_06M/GpL16-k0 (antibody, human IgG1, kappa, homodimerized IgG1, mutation in both H chains; also called Ho Ab) heavy: not shown light: DIVMTQSPLSLPVTPGEPASISCQASESLVHSNRNTYLHWYLQKPGQSPQLLIYKVSNRFSGVPDRFSGSGSGTDFTLKISRVEAEDVGVYYCSQNTHVPPTFGQGTKVEIERTVAAPSVFIFPPSDEQLKSGTASVVCLLNNFYPREAKVQWKVDNALQSGNSQESVTEQDSKDSTYSLSSTLTLSKADYEKHKVYACEVTHQGLSSPVTKSFNRGEC | 111 relative, control = 100
GpH7-B3 variant Y300_02A/GpL16-k0 (antibody, human IgG1, kappa, homodimerized IgG1, mutation in both H chains; also called Ho Ab) heavy: not shown light: DIVMTQSPLSLPVTPGEPASISCQASESLVHSNRNTYLHWYLQKPGQSPQLLIYKVSNRFSGVPDRFSGSGSGTDFTLKISRVEAEDVGVYYCSQNTHVPPTFGQGTKVEIERTVAAPSVFIFPPSDEQLKSGTASVVCLLNNFYPREAKVQWKVDNALQSGNSQESVTEQDSKDSTYSLSSTLTLSKADYEKHKVYACEVTHQGLSSPVTKSFNRGEC | 110 relative, control = 100
GpH7-B3 variant Y296_16H/GpL16-k0 (antibody, human IgG1, kappa, homodimerized IgG1, mutation in both H chains; also called Ho Ab) heavy: not shown light: DIVMTQSPLSLPVTPGEPASISCQASESLVHSNRNTYLHWYLQKPGQSPQLLIYKVSNRFSGVPDRFSGSGSGTDFTLKISRVEAEDVGVYYCSQNTHVPPTFGQGTKVEIERTVAAPSVFIFPPSDEQLKSGTASVVCLLNNFYPREAKVQWKVDNALQSGNSQESVTEQDSKDSTYSLSSTLTLSKADYEKHKVYACEVTHQGLSSPVTKSFNRGEC | 105 relative, control = 100
GpH7-B3 variant Y296_20W/GpL16-k0 (antibody, human IgG1, kappa, homodimerized IgG1, mutation in both H chains; also called Ho Ab) heavy: not shown light: DIVMTQSPLSLPVTPGEPASISCQASESLVHSNRNTYLHWYLQKPGQSPQLLIYKVSNRFSGVPDRFSGSGSGTDFTLKISRVEAEDVGVYYCSQNTHVPPTFGQGTKVEIERTVAAPSVFIFPPSDEQLKSGTASVVCLLNNFYPREAKVQWKVDNALQSGNSQESVTEQDSKDSTYSLSSTLTLSKADYEKHKVYACEVTHQGLSSPVTKSFNRGEC | 106 relative, control = 100
GpH7-B3 variant Y296_11K/GpL16-k0 (antibody, human IgG1, kappa, homodimerized IgG1, mutation in both H chains; also called Ho Ab) heavy: not shown light: DIVMTQSPLSLPVTPGEPASISCQASESLVHSNRNTYLHWYLQKPGQSPQLLIYKVSNRFSGVPDRFSGSGSGTDFTLKISRVEAEDVGVYYCSQNTHVPPTFGQGTKVEIERTVAAPSVFIFPPSDEQLKSGTASVVCLLNNFYPREAKVQWKVDNALQSGNSQESVTEQDSKDSTYSLSSTLTLSKADYEKHKVYACEVTHQGLSSPVTKSFNRGEC | 102 relative, control = 100
GpH7-B3 variant T335_16H/GpL16-k0 (antibody, human IgG1, kappa, homodimerized IgG1, mutation in both H chains; also called Ho Ab) heavy: not shown light: DIVMTQSPLSLPVTPGEPASISCQASESLVHSNRNTYLHWYLQKPGQSPQLLIYKVSNRFSGVPDRFSGSGSGTDFTLKISRVEAEDVGVYYCSQNTHVPPTFGQGTKVEIERTVAAPSVFIFPPSDEQLKSGTASVVCLLNNFYPREAKVQWKVDNALQSGNSQESVTEQDSKDSTYSLSSTLTLSKADYEKHKVYACEVTHQGLSSPVTKSFNRGEC | 104 relative, control = 100
GpH7-B3 variant Y300_14T/GpL16-k0 (antibody, human IgG1, kappa, homodimerized IgG1, mutation in both H chains; also called Ho Ab) heavy: not shown light: DIVMTQSPLSLPVTPGEPASISCQASESLVHSNRNTYLHWYLQKPGQSPQLLIYKVSNRFSGVPDRFSGSGSGTDFTLKISRVEAEDVGVYYCSQNTHVPPTFGQGTKVEIERTVAAPSVFIFPPSDEQLKSGTASVVCLLNNFYPREAKVQWKVDNALQSGNSQESVTEQDSKDSTYSLSSTLTLSKADYEKHKVYACEVTHQGLSSPVTKSFNRGEC | 110 relative, control = 100
GpH7-B3 variant Y300_03V/GpL16-k0 (antibody, human IgG1, kappa, homodimerized IgG1, mutation in both H chains; also called Ho Ab) heavy: not shown light: DIVMTQSPLSLPVTPGEPASISCQASESLVHSNRNTYLHWYLQKPGQSPQLLIYKVSNRFSGVPDRFSGSGSGTDFTLKISRVEAEDVGVYYCSQNTHVPPTFGQGTKVEIERTVAAPSVFIFPPSDEQLKSGTASVVCLLNNFYPREAKVQWKVDNALQSGNSQESVTEQDSKDSTYSLSSTLTLSKADYEKHKVYACEVTHQGLSSPVTKSFNRGEC | 112 relative, control = 100
GpH7-B3 variant Y300_13S/GpL16-k0 (antibody, human IgG1, kappa, homodimerized IgG1, mutation in both H chains; also called Ho Ab) heavy: not shown light: DIVMTQSPLSLPVTPGEPASISCQASESLVHSNRNTYLHWYLQKPGQSPQLLIYKVSNRFSGVPDRFSGSGSGTDFTLKISRVEAEDVGVYYCSQNTHVPPTFGQGTKVEIERTVAAPSVFIFPPSDEQLKSGTASVVCLLNNFYPREAKVQWKVDNALQSGNSQESVTEQDSKDSTYSLSSTLTLSKADYEKHKVYACEVTHQGLSSPVTKSFNRGEC | 110 relative, control = 100
GpH7-B3 variant Y300_20W/GpL16-k0 (antibody, human IgG1, kappa, homodimerized IgG1, mutation in both H chains; also called Ho Ab) heavy: not shown light: DIVMTQSPLSLPVTPGEPASISCQASESLVHSNRNTYLHWYLQKPGQSPQLLIYKVSNRFSGVPDRFSGSGSGTDFTLKISRVEAEDVGVYYCSQNTHVPPTFGQGTKVEIERTVAAPSVFIFPPSDEQLKSGTASVVCLLNNFYPREAKVQWKVDNALQSGNSQESVTEQDSKDSTYSLSSTLTLSKADYEKHKVYACEVTHQGLSSPVTKSFNRGEC | 110 relative, control = 100
GpH7-B3 variant T335_19Q/GpL16-k0 (antibody, human IgG1, kappa, homodimerized IgG1, mutation in both H chains; also called Ho Ab) heavy: not shown light: DIVMTQSPLSLPVTPGEPASISCQASESLVHSNRNTYLHWYLQKPGQSPQLLIYKVSNRFSGVPDRFSGSGSGTDFTLKISRVEAEDVGVYYCSQNTHVPPTFGQGTKVEIERTVAAPSVFIFPPSDEQLKSGTASVVCLLNNFYPREAKVQWKVDNALQSGNSQESVTEQDSKDSTYSLSSTLTLSKADYEKHKVYACEVTHQGLSSPVTKSFNRGEC | 105 relative, control = 100
GpH7-B3 variant T335_15Y/GpL16-k0 (antibody, human IgG1, kappa, homodimerized IgG1, mutation in both H chains; also called Ho Ab) heavy: not shown light: DIVMTQSPLSLPVTPGEPASISCQASESLVHSNRNTYLHWYLQKPGQSPQLLIYKVSNRFSGVPDRFSGSGSGTDFTLKISRVEAEDVGVYYCSQNTHVPPTFGQGTKVEIERTVAAPSVFIFPPSDEQLKSGTASVVCLLNNFYPREAKVQWKVDNALQSGNSQESVTEQDSKDSTYSLSSTLTLSKADYEKHKVYACEVTHQGLSSPVTKSFNRGEC | 106 relative, control = 100
GpH7-B3 variant Y300_11K/GpL16-k0 (antibody, human IgG1, kappa, homodimerized IgG1, mutation in both H chains; also called Ho Ab) heavy: not shown light: DIVMTQSPLSLPVTPGEPASISCQASESLVHSNRNTYLHWYLQKPGQSPQLLIYKVSNRFSGVPDRFSGSGSGTDFTLKISRVEAEDVGVYYCSQNTHVPPTFGQGTKVEIERTVAAPSVFIFPPSDEQLKSGTASVVCLLNNFYPREAKVQWKVDNALQSGNSQESVTEQDSKDSTYSLSSTLTLSKADYEKHKVYACEVTHQGLSSPVTKSFNRGEC | 101 relative, control = 100
GpH7-B3 variant T335_20W/GpL16-k0 (antibody, human IgG1, kappa, homodimerized IgG1, mutation in both H chains; also called Ho Ab) heavy: not shown light: DIVMTQSPLSLPVTPGEPASISCQASESLVHSNRNTYLHWYLQKPGQSPQLLIYKVSNRFSGVPDRFSGSGSGTDFTLKISRVEAEDVGVYYCSQNTHVPPTFGQGTKVEIERTVAAPSVFIFPPSDEQLKSGTASVVCLLNNFYPREAKVQWKVDNALQSGNSQESVTEQDSKDSTYSLSSTLTLSKADYEKHKVYACEVTHQGLSSPVTKSFNRGEC | 104 relative, control = 100
GpH7-B3 variant Y296_06M/GpL16-k0 (antibody, human IgG1, kappa, homodimerized IgG1, mutation in both H chains; also called Ho Ab) heavy: not shown light: DIVMTQSPLSLPVTPGEPASISCQASESLVHSNRNTYLHWYLQKPGQSPQLLIYKVSNRFSGVPDRFSGSGSGTDFTLKISRVEAEDVGVYYCSQNTHVPPTFGQGTKVEIERTVAAPSVFIFPPSDEQLKSGTASVVCLLNNFYPREAKVQWKVDNALQSGNSQESVTEQDSKDSTYSLSSTLTLSKADYEKHKVYACEVTHQGLSSPVTKSFNRGEC | 104 relative, control = 100
